These results are taken from the RNAGym collection of RNA variant scans (doi:10.1101/gr.219683.116).

To fix the notation:
B1: mRNA-splicing (parent)
chain: AGUUGCUGCUGGGAGCUCCAGCACAGUGAAAUGGACAGAAGGGCAGAGCAA

This series covers variants of B1. Kind of series: exon inclusion enrichment index; higher = more inclusion; WT1 exon 5 minigene, HEK293.
With AGUUCACACAGGUCGCUCCAGCACAGUGAAAUGGACAGAAGGGCAGAGCAA [G5C C6A U7C G8A U10A G13U A14C], the “exon inclusion enrichment index” value was 0.0603. With AGUUACCACCGGGAGCUCCAGCACAGUGACCUGGACAGAAGGGCAGAGCAA [G5A U7C G8A U10C A30C A31C], the “exon inclusion enrichment index” value was found to be 3.14. Regarding AGUUCUUCUCGGGAGCUCCAGCACAAGGAAAUGGACAGAAGGGCAGAGCAA [G5C C6U G8C C9U U10C G26A U27G], the “exon inclusion enrichment index” value was 2.81. Consider AGUUCACACAGGGAGCUCCAGCACAGUGAAACGGACAGAAGGGCAGAGCAA [G5C C6A U7C G8A U10A U32C], for which the “exon inclusion enrichment index” value was 0.292.

Turning to AGUUGCUGCUGCCAGCUCCAGCACAGUGAAAUGGACAGAAGGGCAGAGCAA [G12C G13C], the “exon inclusion enrichment index” value was found to be 0.309. Under AGUUCGCGCCGGGAGCUCCAGCACAGUGAAAUGGACAGAAGAGCAGAGCAA [G5C C6G U7C U10C G42A] stands 4.32. On to AGUUGACGACGGGAGCUCCAGCGCAGUGAAAUGGACAGAAGGGCAGAGCAA [C6A U7C C9A U10C A23G], for which the “exon inclusion enrichment index” value came out at 4.36. Then AGUUGAAGAAGGGAGCUCCAGCACAGUGAAACGGACAGAAGGGCAGAGCAA [C6A U7A C9A U10A U32C], with 1.37; and AGUUGACGACGGGAGCUCCAGCACCUUGAAAUGGACAGAAGGGCAGAGCAA [C6A U7C C9A U10C A25C G26U], with 3.89; and AGUACACACAGGGAGCUCCAGCACAGUGAAAUGGACAGAAGGGCAGAGCAA [U4A G5C C6A U7C G8A U10A], with 0.0584. Then AGUUAUCGCCGGGAGCUCCAGCACAGUGAAAUGGACAGAAGGGCAGAGCAA [G5A C6U U7C U10C], with 3.3; and AGCAAGGGAUGGGAGCUCCAGCACAGUGAAAUGGACAGAAGGGCAGAGCAA [U3C U4A G5A C6G U7G C9A], with 0.0853; and AGUUGACGACGGGAGCUCCAGCACAGUGAAAUGGACAGAGAGGCAGAGCAA [C6A U7C C9A U10C A40G G41A], with 1.83. On to AGUUGAAGAAGGGAGCUCCAGCACAGUGAAAUGGACACCAGGGCAGAGCAA [C6A U7A C9A U10A G38C A39C], for which the “exon inclusion enrichment index” value came to 0.874.

Regarding AGUUGACGACGGGAGCUCCAGCACAGUGAAAUGGACAGAAGGGCUGAGCAA [C6A U7C C9A U10C A45U], the “exon inclusion enrichment index” value came out at 3.86. Turning to AGUUGAAGAAGGGAGCUCCAGCACAGUGAAAUGGACAGAAGGGUCGAGCAA [C6A U7A C9A U10A C44U A45C], the “exon inclusion enrichment index” value is 1.16. With AGUUCUUCUCGGGAGCUCCAGCACAGUGAAAAUGACAGAAGGGCAGAGCAA [G5C C6U G8C C9U U10C U32A G33U], the “exon inclusion enrichment index” value turned out to be 1.25. In the case of AGUUGACGACGGGAGCUCCAAUACAGUGAAAUGGACAGAAGGGCAGAGCAA [C6A U7C C9A U10C G21A C22U], the “exon inclusion enrichment index” value was determined as 2.22. Take AGUUUCUUUUGGGAGCUCCAGCACAGUGAAAUAUACAGAAGGGCAGAGCAA [G5U G8U C9U G33A G34U]: the “exon inclusion enrichment index” value came to 0.0046.

For the variant AGUUAGGGAUGGUCGCUCCAGCACAGUGAAAUGGACAGAAGGGCAGAGCAA [G5A C6G U7G C9A G13U A14C], the “exon inclusion enrichment index” value is 0.00403. In the case of AGUUUCUUUUGGGAGCUCCAGCACAGUGAAAUUAACAGAAGGGCAGAGCAA [G5U G8U C9U G33U G34A], the “exon inclusion enrichment index” value turned out to be 0.00858.

In the case of AGUUCACACAGGGAGCUCCAGCACAGUGAAAUGGACAGAAGGGCCGAGCAA [G5C C6A U7C G8A U10A A45C], the “exon inclusion enrichment index” value worked out at 0.18.

For the variant AGUUAGGGAUGGGAGCUCCAGCACAGUGCUAUGGACAGAAGGGCAGAGCAA [G5A C6G U7G C9A A29C A30U], the “exon inclusion enrichment index” value was 0.00149. With AGUUCGCGCCGGGACUUCCAGCACAGUGAAAUGGACAGAAGGGCAGAGCAA [G5C C6G U7C U10C G15C C16U], the “exon inclusion enrichment index” value came to 3.37. As to AGUUACCACCGGGAGCUCCAGCACCGUGAAAUGGACAGAAGGGCAGAGCAA [G5A U7C G8A U10C A25C], the “exon inclusion enrichment index” value is 4.03.

As to AGUUUCUUUUGGGAGCUCCAGCACAGUGAAAUGGACAGAAGGGCAGCACAA [G5U G8U C9U A47C G48A], the “exon inclusion enrichment index” value is 0.0919. In the case of AGUUGAAGAAGGGAGCUCCAGCACAGUGAAAUGGACAGAAGGGCAAAGCAA [C6A U7A C9A U10A G46A], the “exon inclusion enrichment index” value stood at 0.993. For the variant AGUUCGCGCCGGGAGCUCCAGCACAGUGAACAGGACAGAAGGGCAGAGCAA [G5C C6G U7C U10C A31C U32A], the “exon inclusion enrichment index” value is 2.89. Then AGUGCUAUAUGGGAGCUCCAGCACAGUGAAAUGGACAGAAGGGCAGAGCAA [U4G G5C C6U U7A G8U C9A], with 0.157; and AGUUGACGACGGGAGCUGCAGCACAGUGAAAUGGACAGAAGGGCAGAGCAA [C6A U7C C9A U10C C18G], with 3.06. AGUUCAGGCCGGGAGCUCCAGCACAGUGAAAUGGACAGAAGGGCAGAGCAA [G5C C6A U7G U10C]: the “exon inclusion enrichment index” value worked out at 0.429. Then AGUUAGGGAUGGGAGCUCCAGCACAGUGAAACUGACAGAAGGGCAGAGCAA [G5A C6G U7G C9A U32C G33U], with 0.00177; and AGUUCACACAGGGAGCUCCAGCACAGGCAAAUGGACAGAAGGGCAGAGCAA [G5C C6A U7C G8A U10A U27G G28C], with 0.0314; and AGUUCGCGCCGGGAGCUCCAGCACAGUGAUGUGGACAGAAGGGCAGAGCAA [G5C C6G U7C U10C A30U A31G], with 3.75. On to AGUUCACACAGGGAGCUCCAGCACAGUGAAAUGGACAGAGGGGCAGAGCAA [G5C C6A U7C G8A U10A A40G], for which the “exon inclusion enrichment index” value came to 0.0695.

Consider AGUUGACGACAGGAGCUCCAGCACAGUGAAAUGGACAGAAGGGCAGAGCAA [C6A U7C C9A U10C G11A], for which the “exon inclusion enrichment index” value came to 1.84. As to AGUUCGAACCGGGAGCUCCAGCACAGUGAAAUGGACAGAAGGGCAGAGCAA [G5C C6G U7A G8A U10C], the “exon inclusion enrichment index” value stood at 2.49.

AGUUCGCGCCGGGAGCUCCAGCACACCGAAAUGGACAGAAGGGCAGAGCAA [G5C C6G U7C U10C G26C U27C]: the “exon inclusion enrichment index” value is 4.24. As for AGUAGCUGCUGGGAGCUCCAGCACAGUGAAAUGGACAGAAGGGCAGAGCAA [U4A], the “exon inclusion enrichment index” value was determined as 0.00347.

Turning to AGUUCACACAGGGAGCUCCAGCACAGUGAAAUGGACAGAAGGGCAUGGCAA [G5C C6A U7C G8A U10A G46U A47G], the “exon inclusion enrichment index” value was 0.118. Then AGUUAGGGAUGGGAGCUCCCUCACAGUGAAAUGGACAGAAGGGCAGAGCAA [G5A C6G U7G C9A A20C G21U], with 0.00104; and AGUUAUAUAUGGGAUCUCCAGCACAGUGAAAUGGACAGAAGGGCAGAGCAA [G5A C6U U7A G8U C9A G15U], with 0.0601; and AGUUCGCGCCGCCAGCUCCAGCACAGUGAAAUGGACAGAAGGGCAGAGCAA [G5C C6G U7C U10C G12C G13C], with 0.519. Turning to AGUUAUAUAUGGGAGCACCAGCACAGUGAAAUGGACAGAAGGGCAGAGCAA [G5A C6U U7A G8U C9A U17A], the “exon inclusion enrichment index” value came out at 0.0566. Turning to AGUUGCUGCUGGGAGCUCCAGCACAGUGAGCUGGACAGAAGGGCAGAGCAA [A30G A31C], the “exon inclusion enrichment index” value worked out at 0.126. For the variant AGUUACAUAUGGGAGCUCCAGCACAGUGAAAUGGACAGAAGGGCAGAGCAA [G5A U7A G8U C9A], the “exon inclusion enrichment index” value was determined as 0.262. AGUUAGGGAUGGGAGCUCCAUAACAGUGAAAUGGACAGAAGGGCAGAGCAA [G5A C6G U7G C9A G21U C22A]: the “exon inclusion enrichment index” value worked out at 0.00074. Turning to AGUUCUUCUCGGGAGCUCCAGCACAUUGAAAUGGACAGAAGGGCAGAGCAA [G5C C6U G8C C9U U10C G26U], the “exon inclusion enrichment index” value was 2.06.

Regarding AGUUGAAGAAGGGAGCUCCAGCACAGUGAAAUGGUUAGAAGGGCAGAGCAA [C6A U7A C9A U10A A35U C36U], the “exon inclusion enrichment index” value came to 0.00621. Then AGUUCACACACGGAGCUCCAGCACAGUGAAAUGGACAGAAGGGCAGAGCAA [G5C C6A U7C G8A U10A G11C], with 0.99; and AGUUAGGGAUGGGAGCUCCAAGACAGUGAAAUGGACAGAAGGGCAGAGCAA [G5A C6G U7G C9A G21A C22G], with 0.00502.
